# Target: the molecule itself
# Assay: SEC + other: Western blot; HPLC-SEC: 50 uL of purified protein at 0.5 mg/mL on TSKgel 3000SWXL, 0.8 mL/min, PBS + 200 mM NaCl (pH 7.3), gel filtration standard for apparent molecular weight; Western blot conditions not told
row,Protein,stoichiometry N
1,"human IL-22 (hIL-22) (ligand, UniProt Q9GZX6 34-179, looked up, interleukin-22, human; codon optimised; the IL-22 stretch is then probably the mature protein; also called native hIL-22; native human IL-22; source: CHO-S, transiently transfected, secreted, purified (HisTrap Excel, HiTrap Q flow-through)) APISSHCRLDKSNFQQPYITNRTFMLAKEASLADNNTDVRLIGEKLFHGVSMSERCYLMKQVLNFTLEEVLFPQSDRFQPYMQEVVPFLARLSNRLSTCHIEGDDLHIQRNVQKLKDTVKKLGESGEIKAIGELDLLFMSLRNACI",2
2,hIL-22-GLP1 (human IL-22 fused to a GLP1 receptor binding protein) (other) APISSHCRLDKSNFQQPYITNRTFMLAKEASLADNNTDVRLIGEKLFHGVSMSERCYLMKQVLNFTLEEVLFPQSDRFQPYMQEVVPFLARLSNRLSTCHIEGDDLHIQRNVQKLKDTVKKLGESGEIKAIGELDLLFMSLRNACI,2
